Columns and labels:
[1] = biological target: S-adenosylmethionine synthetase (AdoMet synthetase, MAT) from Neisseria meningitidis WUE2594 (Neisseria meningitidis WUE2594); test: native gel or EMSA
[2] = biological target: S-adenosylmethionine synthetase (AdoMet synthetase, MAT) from Neisseria meningitidis WUE2594 (Neisseria meningitidis WUE2594); test: dynamic light scattering
[3] = biological target: AdoMet synthetase (MAT, MetK); test: coupled enzyme assay, Dixon plot; assay type: biochemical, Campylobacter jejuni
[4] = biological target: T1, AdoMet synthetase (MAT, MetK) (Pseudomonas aeruginosa, UniProt Q9I5Z0); test: coupled enzyme assay, Dixon plot; assay type: biochemical
T1 sequence (Q9I5Z0 1-396): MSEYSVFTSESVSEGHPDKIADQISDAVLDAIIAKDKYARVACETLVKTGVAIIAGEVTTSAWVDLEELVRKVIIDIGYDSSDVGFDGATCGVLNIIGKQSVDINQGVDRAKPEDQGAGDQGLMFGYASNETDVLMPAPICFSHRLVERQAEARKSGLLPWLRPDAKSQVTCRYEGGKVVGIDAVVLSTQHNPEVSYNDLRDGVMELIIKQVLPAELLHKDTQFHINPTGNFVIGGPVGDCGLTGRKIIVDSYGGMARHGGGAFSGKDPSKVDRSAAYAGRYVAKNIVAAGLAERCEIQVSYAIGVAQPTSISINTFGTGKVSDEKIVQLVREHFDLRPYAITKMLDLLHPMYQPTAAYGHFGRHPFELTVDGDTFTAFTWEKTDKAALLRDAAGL

[5] = biological target: the molecule itself; test: dynamic light scattering
[6] = substrate: CSCC[C@H](N)C(=O)O; test: coupled pyrophosphate enzyme assay, steady-state kinetics; assay type: biochemical, Pseudomonas aeruginosa; conditions: MgATP L-methionine binding site of the active site
[7] = substrate: CCOC(=O)[C@@H](N)CCSC; test: coupled pyrophosphate enzyme assay, alternative substrate kinetics; assay type: biochemical, Escherichia coli; conditions: MgATP L-methionine binding site
[8] = substrate: COC(=O)[C@@H](N)CCSC; test: as above; assay type: biochemical, Escherichia coli; conditions: MgATP L-methionine binding site

## S-adenosylmethionine synthetase (AdoMet synthetase, MAT) from Neisseria meningitidis WUE2594 (enzyme)
[1]
  stoichiometry N: 4
[2]
  stoichiometry N: 4

## CSCC[C@H](N)CC(=O)O [β-methionine, (R)-3-amino-5-(methylthio)pentanoic acid]
[3]
  Ki: ~7 mM

## NC(=O)SC[C@H](N)C(=O)O [S-carbamyl-L-cysteine]
[4]
  Ki: ~4 mM

B1: S-adenosylmethionine synthetase (AdoMet synthetase, MAT) from Escherichia coli K12 (enzyme, UniProt B1XFA4 1-384, looked up)
chain: MAKHLFTSESVSEGHPDKIADQISDAVLDAILEQDPKARVACETYVKTGMVLVGGEITTSAWVDIEEITRNTVREIGYVHSDMGFDANSCAVLSAIGKQSPDINQGVDRADPLEQGAGDQGLMFGYATNETDVLMPAPITYAHRLVQRQAEVRKNGTLPWLRPDAKSQVTFQYDDGKIVGIDAVVLSTQHSEEIDQKSLQEAVMEEIIKPILPAEWLTSATKFFINPTGRFVIGGPMGDCGLTGRKIIVDTYGGMARHGGGAFSGKDPSKVDRSAAYAARYVAKNIVAAGLADRCEIQVSYAIGVAEPTSIMVETFGTEKVPSEQLTLLVREFFDLRPYGLIQMLDLLHPIYKETAAYGHFGREHFPWEKTDKAQLLRDAAGLK
[5]
  stoichiometry N: 4

B2: S-adenosylmethionine synthetase (AdoMet synthetase, MAT) from Pseudomonas aeruginosa PA01 (enzyme, UniProt B7V4D3 1-396, looked up)
chain: T1 sequence (Q9I5Z0 1-396)
[6]
  Km: 40 ± 5 µM
[5]
  stoichiometry N: 4

B3: AdoMet synthetase (MAT, MetK) (Escherichia coli K-12) (protein)
chain: AKHLFTSESVSEGHPDKIADQISDAVLDAILEQDPKARVACETYVKTGMVLVGGEITTSAWVDIEEITRNTVREIGYVHSDMGFDANSCAVLSAIGKQSPDINQGVDRADPLEQGAGDQGLMFGYATNETDVLMPAPITYAHRLVQRQAEVRKNGTLPWLRPDAKSQVTFQYDDGKIVGIDAVVLSTQHSEEIDQKSLQEAVMEEIIKPILPAEWLTSATKFFINPTGRFVIGGPMGDCGLTGRKIIVDTYGGMARHGGGAFSGKDPSKVDRSAAYAARYVAKNIVAAGLADRCEIQVSYAIGVAEPTSIMVETFGTEKVPSEQLTLLVREFFDLRPYGLIQMLDLLHPIYKETAAYGHFGREHFPWEKTDKAQLLRDAAGLK
[7]
  Km: 120 ± 10 µM
[8]
  Km: 170 ± 50 µM

B4: S-adenosylmethionine synthetase (AdoMet synthetase, MAT) from Campylobacter jejuni 81-176 (enzyme, UniProt Q0P9F8 1-398, looked up)
chain: MYLFTSEVVSAGHPDKCADIIADTIVDILLKNDKNSRVASEVFVAGNKVVIGGEVKSNHKLSKADYDNLVKDVLKNIGYDGAGHFSKEQCLHPDEVDVMVFLNEQSPDINQGVDQEDGETGAGDQGIMFGFASCEAEEYMPAAISYARMLCDRVYAYAKANPHELGVDIKTQVTIDYGTKANFENCKPQSIHTIVVSAPCVESMKIEDLRSLVMKLILDSNLPKELFDPNKTRILINPTGKYVNHSSLHDSGLTGRKLIVDSFGGYSPIGGGAQSSKDYTKVDRSGLYAGRWLAKNIVAAGLAKKCIVQLSYAIGVAKPTSVSVDCMGTNTSVNDDVLSDFVMQNFSLTPNWIRDKFHLDKPSKETFLYADVAARGQVGQKDYPWEKLDALEQFKKLL
[5]
  stoichiometry N: 2
